Experiment [1] concerns the target T1, GST-γ2III-7 (a.a. residues 461-653) (human, UniProt Q13753 461-653).
T1 construct: Recombinant GST-γ2III-chain fragment; not shown: glutathione S-transferase (GST) fusion partner
T1 sequence: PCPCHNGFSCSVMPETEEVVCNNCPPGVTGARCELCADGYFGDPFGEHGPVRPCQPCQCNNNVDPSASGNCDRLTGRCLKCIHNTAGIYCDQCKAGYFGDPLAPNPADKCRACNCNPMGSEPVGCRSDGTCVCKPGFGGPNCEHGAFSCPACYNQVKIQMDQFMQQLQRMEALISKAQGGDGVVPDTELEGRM
Briefly: direct ELISA, fusion proteins coated at 100 ng/well, A405 (Example 3, first experiment). On the procedure: (§1) The stepwise protocol set forth below was used for the ELISAs, which were performed with biotinylated mAb 4G1, mAb 5D5, and mAb 6C12 (GST, BSA, and plastic used as controls in the first experiment; GST and BSA only in the second experiment) and the γ2 DIII antigens individually (GST-γIII-20 was only tested in the second experiment; nonspecific biotinylated Ig was used as a control for the antibodies in both experiments). All incubations were performed at room temperature except step 1, below. 100 μl of reagents were used per well for incubations and 200 μl of PBST for washings unless otherwise mentioned. In addition, shaking the plate can be helpful for incubations.
ELISA plates were coated with 100 μl GST-γ2III chain fragments at concentration of 1 μg/ml in 0.1 M carbonate/bicarbonate buffer, pH 9, o/n at +4° C. (100 ng/well). The coated plates were washed three times with PBST. Non-specific binding was blocked with BSA-PBS incubation for 90 minutes (200 μl/well). Dilutions of reference standards, negative controls (quality controls), and sample were diluted in BSA-PBS and thereafter incubated for 1 h at room temperature. The plates were again washed three times with PBST. […] Absorbance was read with a microtitre plate reader at 405 nm after 30 min and after 60 min.

Experiment [2] addresses T2, GST-γ2III-20 (a.a. residues 461-534) (human, UniProt Q13753 461-534).
T2 construct: Recombinant GST-γ2III-chain fragment, used in the second set of experiments only; also called GST-γIII-20; not shown: glutathione S-transferase (GST) fusion partner
T2 sequence: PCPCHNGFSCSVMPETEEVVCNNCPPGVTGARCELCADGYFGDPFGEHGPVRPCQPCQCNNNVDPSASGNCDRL
Briefly: direct ELISA, fusion proteins coated at 100 ng/well, A405 (Example 3, second experiment). On the procedure: as §1
(§2) ELISA plates were coated with 100 μl GST-γ2III chain fragments at concentration of 1 μg/ml in 0.1 M carbonate/bicarbonate buffer, pH 9, o/n at +4° C. (100 ng/well). The coated plates were washed three times with PBST. Non-specific binding was blocked with BSA-PBS incubation for 90 minutes (200 μl/well). Dilutions of reference standards, negative controls (quality controls), and sample were diluted in BSA-PBS and thereafter incubated for 1 h at room temperature. The plates were again washed three times with PBST. HRP-conjugated anti-mouse IgG secondary antibody was added to the wells (diluted 1:5000 in PBS) and allowed to incubate for 30 minutes. The plates were washed again three times with PBST. ABTS-peroxidase substrate was added. Substrates were prepared immediately before use: ABTS-stock (10×) was diluted with Citrate buffer (see Example 1); 2 μl of 30% hydrogen […] was added to each well and mixed. Substrate was added to the wells and incubated in dark conditions for 30 minutes. Absorbance was read with a microtitre plate reader at 405 nm after 30 min and after 60 min.
A general note: In an ELISA, binding on a coated surface is turned into a signal by an enzyme label.

In another experiment the target is T3, BSA (bovine, UniProt P02769).
T3 construct: also called bovine serum albumin
T3 sequence (P02769 25-607 limits assumed): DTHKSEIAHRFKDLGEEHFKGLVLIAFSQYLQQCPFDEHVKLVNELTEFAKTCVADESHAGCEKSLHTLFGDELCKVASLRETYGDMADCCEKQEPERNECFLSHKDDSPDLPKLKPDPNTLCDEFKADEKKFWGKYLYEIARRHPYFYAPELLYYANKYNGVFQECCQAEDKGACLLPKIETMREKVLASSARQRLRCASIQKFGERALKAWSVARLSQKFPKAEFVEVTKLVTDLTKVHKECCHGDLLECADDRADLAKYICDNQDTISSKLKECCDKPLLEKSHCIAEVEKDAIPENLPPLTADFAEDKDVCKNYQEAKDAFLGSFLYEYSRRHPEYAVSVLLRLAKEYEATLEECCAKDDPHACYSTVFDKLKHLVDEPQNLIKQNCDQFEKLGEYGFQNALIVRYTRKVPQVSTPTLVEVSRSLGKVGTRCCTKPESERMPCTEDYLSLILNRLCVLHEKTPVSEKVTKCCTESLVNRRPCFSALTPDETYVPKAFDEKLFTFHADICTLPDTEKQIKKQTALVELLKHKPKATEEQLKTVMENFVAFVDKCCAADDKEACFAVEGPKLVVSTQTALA
Described as above. The method, then:
as §1, §2

Experiment [3] has as its target T4, cyclic peptide X254 (Ln-5 residues 494-516, +E) (human, Cys-Cys disulfide bond (cyclic peptide)).
T4 peptide: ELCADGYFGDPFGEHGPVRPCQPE
Briefly: direct ELISA on coated cyclic peptides. On the procedure:
(§3) The identity of these peptides was verified by mass spectrometry. Solutions containing the five peptides, in an unpurified state, were individually subjected to direct ELISA analysis using standard techniques. Briefly, NUNC-IMMUNO plates were coated with 100 μl/well of 50 μg/ml peptide in carbonate buffer and allowed to sit overnight at +4° C. […] The plates were washed five times with PBS to remove unbound peptide and subjected to one hour blocking at room temperature by exposure with a washing/blocking buffer (0.05% Tween-20 in PBS (PBST)), which was thereafter removed. 100 ng of antibody (100 μl of solution containing an antibody solution at a concentration of 1 μg antibody/ml) for each of the three mAbs (4G1, 5D5, and 6C12) was added to the test wells. Dilution buffer was added to the control wells. The plates were incubated at room temperature for one hour, and thereafter washed four times in PBST.
(§4) 100 μl HRP-anti-mouse secondary Ab diluted in a dilution buffer at a ratio of 1:2000 was added to each well and the plates were incubated for one hour at room temperature, and thereafter washed 4 times with PBST. The plates were then developed with 100 μl TMB substrate for a period of 15-30 minutes in the dark (during which time the plates were monitored for color development). At an appropriate time, the reaction was stopped in each well with the addition of 4M H3PO4. Absorbance measurements were taken at 450 nm and 620 nm, ratios of absorbance determined, and the data evaluated. These experiments were performed in triplicate.

Experiment [4] deals with T5, cyclic peptide X253 (Ln-5 residues 425-444) (human, Cys-Cys disulfide bond (cyclic peptide)).
T5 construct: Used unpurified
T5 peptide: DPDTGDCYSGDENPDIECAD
The experiment in a line: direct ELISA on coated cyclic peptides. On the procedure:
as §3, §4

Experiment [5] has as its target T6, cyclic peptide X255 (R+, Ln-5 residues 518-537) (human, Cys-Cys disulfide bond (cyclic peptide)).
T6 peptide: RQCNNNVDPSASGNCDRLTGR
Briefly: direct ELISA on coated cyclic peptides. The method, then:
as §3, §4

Experiment [6] addresses T7, cyclic peptide X256 (Ln-5 residues 539-552 + R) (human, disulfide 3-12 (inferred)).
T7 peptide: LKCIHNTAGIYCDQR
The experiment in a line: direct ELISA on coated cyclic peptides. On the procedure: as §3, §4

Experiment [7] deals with T8, GST-γ2III fusion protein (glutathione S-transferase:γ2 DIII fragment fusion protein, human laminin γ2 amino … (human)).
T8 construct: also called GST-γ2DIII; GST-γ2 DIII
T8 sequence (chain, as listed by the source limits assumed): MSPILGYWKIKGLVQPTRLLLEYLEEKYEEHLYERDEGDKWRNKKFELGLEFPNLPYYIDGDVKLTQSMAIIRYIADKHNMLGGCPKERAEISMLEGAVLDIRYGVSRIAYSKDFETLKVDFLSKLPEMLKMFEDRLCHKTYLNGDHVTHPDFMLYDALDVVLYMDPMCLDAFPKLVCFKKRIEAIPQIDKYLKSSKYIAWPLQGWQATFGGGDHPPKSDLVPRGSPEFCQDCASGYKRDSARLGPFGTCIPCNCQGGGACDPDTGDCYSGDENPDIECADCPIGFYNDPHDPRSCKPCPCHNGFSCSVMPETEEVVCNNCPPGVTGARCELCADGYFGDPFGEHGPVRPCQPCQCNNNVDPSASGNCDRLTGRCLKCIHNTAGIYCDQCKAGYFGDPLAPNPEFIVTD
Briefly: SPR (BIAcore, RAMFc chip, HBS-EP buffer), mAb against GST-γ2DIII fusion protein. On the procedure:
Resulting reflection/refractive index data obtained from these analyses (at 200 nM, 500 nM, 200 nM, 50 nM, and 20 nM) are presented individually in FIGS. 19A-19C.
In general terms: Surface plasmon resonance follows binding to a sensor surface in real time, without labels.

Experiment [8] deals with T9, cyclic peptide X252 (Ln-5 residues 394-415 + R) (human, Cys-Cys disulfide bond (cyclic peptide)).
T9 construct: Used unpurified
T9 peptide: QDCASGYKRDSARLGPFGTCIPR
The experiment in a line: direct ELISA, peptide coated at 50 µg/ml (controls 5 µg/ml), antibody 100 ng/well, A450/620, mean of three ± SD. The method, then: as §3, with “The plates were incubated at room temperature for one hour, and thereafter washed four times in PBST.” left out
100 μl HRP-anti-mouse secondary Ab diluted in a dilution buffer at a ratio of 1:2000 was added to each well and the plates were incubated for one hour at room temperature, and thereafter washed 4 times with PBST. The plates were then developed with 100 μl TMB substrate for a period of 15-30 minutes in the dark (during which time the plates were monitored for color development). […] Absorbance measurements were taken at 450 nm and 620 nm, ratios of absorbance determined, and the data evaluated. […]

What is called Kd is the equilibrium constant for the complex coming apart. The low end stands for tighter binding, the high end for weaker binding. For orientation: koff means the first-order rate constant of dissociation. A higher koff goes with a short-lived complex. Broadly, the kon is the rate constant with which the complex forms.

Bridge positions count the residues as written; N and C are the ends. Ends that are not written are not given here.

B1: mAb 4G1 (antibody, V domains shown)
VH: EVKLEESGGGLVQPGGSMKLSCVASGFTFSNFWMNWVRQSPEKGLEWVAEIRLKSNNYATHYAESLKGRFTISRDDSKSNVYLQMNNLRPEDTGIYYCTRDYYGSSFAYWGQGTLVTVSA
VL: DIVMTQAAFSNPVTLGTSASISCRSSKSLLHNIGITYLFWYLQKPGQSPQLLIYQMSKLASGVPDRFSGSGSGTDFTLRISRVEAEDVGIYYCAQNLELPPTFGSGTKLEIK
notes: Murine anti-γ2 DIII monoclonal antibody from hybridoma 4G1 (available from DAKO Cytomation); Biotinylated in some ELISAs; also called monoclonal antibody 4G1; γ2 DIII mAb 4G1
In the case of B1, the binding result (in experiment [1]; in experiment [2]; with BSA; in experiment [3]; in experiment [4]; in [5]) was “no binding” each time. The binding result in [6] was “no binding”. This molecule had a Kd in experiment [7] of 11.4 nM. The koff in [7] worked out at 0.000106 s⁻¹. The on-rate (kon) in experiment [7] is 9280 M⁻¹ s⁻¹.

B2: mAb 6C12 (antibody, V domains shown)
VH: DVHLQESGPGLVKPSQSLSLTCTVTGYSITSDYAWNWIRQFPGNRLEWMGYITYSGGTNYNPSLKSRISFTRDTSKNQFFLQLNSVTTEDTATYYCANNFYGNFFDYWGQGTTLTVSS
VL: QIVLTQSPAIMSASPGEKVTMTCSASSSVSYIHWYQQKSGTSPKRWIYDTSKLASGVPARFSGSGSGTSYSLTISSMQAEDAATYYCQQWSSSPPTFGGGTKLEIK
notes: Murine anti-γ2 DIII monoclonal antibody from hybridoma 6C12, deposited at DSMZ as DSM ACC2653; Biotinylated in some ELISAs; also called monoclonal antibody 6C12; DSM ACC2653
For the molecule B2, in the experiment with BSA, the binding result was “no binding”. Besides, in experiment [7], binding was put at a Kd of 23.3 nM, the koff stood at 0.000387 s⁻¹ and the kon was found to be 16600 M⁻¹ s⁻¹. Further, the binding result in experiment [8] is “no binding (tested: 1 µg/ml)”.

These data come from patent US20070065447A1 (Novo Nordisk, published 2007).
